In patent US7524668 (ELAN PHARMACEUTICALS, dated 2009):
Non-standard residues stand in square brackets, D forms with d. No end group written: not given here. Sta = CC(C)C[C@H](N)[C@@H](O)CC(=O)O

Columns and labels:
[1] = biological target: T1, pQE80L-Met-Arg-Gly-Ser-(His)6-Gly-Ser-Ile-Glu-Thr-Asp-(TQH...QTDES) E. coli expressed recombinant human BACE (human, UniProt P56817 22-453); assay: affinity chromatography on peptide-coupled resin, bound at pH 4.5, eluted at pH 8.5
T1 construct: N-terminal His6 tag is part of the construct; also called pQE80L-BACE; pQE-80-BACE
T1 sequence (P56817 other isoform, or with tags, fused parts or gaps limits assumed): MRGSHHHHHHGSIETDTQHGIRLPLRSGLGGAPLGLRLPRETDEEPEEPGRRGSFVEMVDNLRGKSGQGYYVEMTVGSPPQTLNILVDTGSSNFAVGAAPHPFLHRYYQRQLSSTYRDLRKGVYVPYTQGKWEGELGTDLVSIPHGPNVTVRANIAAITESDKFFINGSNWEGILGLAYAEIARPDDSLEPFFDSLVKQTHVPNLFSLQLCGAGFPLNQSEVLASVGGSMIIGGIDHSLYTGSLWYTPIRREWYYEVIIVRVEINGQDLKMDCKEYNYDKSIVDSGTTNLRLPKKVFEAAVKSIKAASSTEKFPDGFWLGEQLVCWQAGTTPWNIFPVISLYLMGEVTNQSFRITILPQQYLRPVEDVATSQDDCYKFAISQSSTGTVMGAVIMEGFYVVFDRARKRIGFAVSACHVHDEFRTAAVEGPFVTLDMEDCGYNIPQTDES

[2] = biological target: T2, pET11a-T7.Tag-Gly-Ser-Met-(A-GV...QTDES) E. coli expressed recombinant human BACE (human, UniProt P56817 14-453); assay: as above
T2 construct: The construct carries an N-terminal T7 tag; also called pET11a-BACE; beta secretase
T2 sequence (P56817 other isoform, or with tags, fused parts or gaps limits assumed): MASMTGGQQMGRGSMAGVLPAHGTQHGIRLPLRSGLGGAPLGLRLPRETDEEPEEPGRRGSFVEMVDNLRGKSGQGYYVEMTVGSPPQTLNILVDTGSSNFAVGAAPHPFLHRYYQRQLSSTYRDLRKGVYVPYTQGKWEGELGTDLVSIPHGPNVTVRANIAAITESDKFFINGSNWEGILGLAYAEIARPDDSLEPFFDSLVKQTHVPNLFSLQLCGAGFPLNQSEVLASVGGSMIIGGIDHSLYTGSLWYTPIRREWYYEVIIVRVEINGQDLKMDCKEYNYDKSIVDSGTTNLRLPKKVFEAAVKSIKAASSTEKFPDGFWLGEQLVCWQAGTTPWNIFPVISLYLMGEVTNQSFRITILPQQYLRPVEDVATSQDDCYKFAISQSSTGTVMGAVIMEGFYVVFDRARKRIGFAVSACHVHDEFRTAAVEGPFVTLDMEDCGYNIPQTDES

[3] = biological target: T3, CHO cell expressed recombinant human beta secretase proteolytically cleaved with HIV protease (human, UniProt P56817 61-453); assay: affinity chromatography on peptide-coupled resin
T3 construct: N-terminus at V40 after cleavage of the F39-V40 bond; also called HIV-1 protease treated beta secretase; HIV protease treated CHO produced beta secretase
T3 sequence (P56817 other isoform, or with tags, fused parts or gaps limits assumed): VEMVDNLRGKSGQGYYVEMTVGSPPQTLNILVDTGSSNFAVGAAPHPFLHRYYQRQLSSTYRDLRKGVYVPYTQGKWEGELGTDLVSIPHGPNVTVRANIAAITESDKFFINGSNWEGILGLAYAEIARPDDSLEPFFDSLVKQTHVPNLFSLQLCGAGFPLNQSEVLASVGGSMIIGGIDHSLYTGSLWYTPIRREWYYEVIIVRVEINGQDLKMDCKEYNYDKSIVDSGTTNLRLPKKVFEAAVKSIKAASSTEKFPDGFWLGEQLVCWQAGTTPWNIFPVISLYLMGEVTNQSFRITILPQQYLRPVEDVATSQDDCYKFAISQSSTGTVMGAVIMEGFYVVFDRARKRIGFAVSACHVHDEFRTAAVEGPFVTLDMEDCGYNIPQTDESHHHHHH

[4] = biological target: T4, pQE70-Met-Arg-Gly-Ser-Phe-Val-Glu-...Thr-Asp-Glu-Ser-Arg-Ser-(His)6 E. coli expressed recombinant human BACE (human, UniProt P56817 57-453); assay: affinity chromatography on peptide-coupled resin, bound at acidic pH, eluted at pH 8.5
T4 construct: C-terminal His6 tag is part of the construct; also called pQE70-BACE
T4 sequence (P56817 other isoform, or with tags, fused parts or gaps limits assumed): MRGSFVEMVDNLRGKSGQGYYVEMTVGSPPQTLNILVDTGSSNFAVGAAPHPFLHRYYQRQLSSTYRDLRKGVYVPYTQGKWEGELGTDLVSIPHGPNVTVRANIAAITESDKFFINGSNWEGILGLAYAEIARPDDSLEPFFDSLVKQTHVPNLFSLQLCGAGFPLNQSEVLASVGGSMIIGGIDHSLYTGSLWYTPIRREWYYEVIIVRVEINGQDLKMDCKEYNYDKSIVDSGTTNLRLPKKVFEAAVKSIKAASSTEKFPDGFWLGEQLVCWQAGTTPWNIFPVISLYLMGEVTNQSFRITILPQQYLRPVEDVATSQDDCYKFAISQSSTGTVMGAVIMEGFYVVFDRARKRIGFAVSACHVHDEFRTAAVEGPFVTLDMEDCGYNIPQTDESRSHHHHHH
Procedure: Prior to purification, the pH of the refolded protein was lowered from about 10 to 8.5 with HCl. The solution was loaded onto three 50 ml Q-Sepharose columns (Pharmacia Biotech XK 50). The columns were pre-equilibrated in 0.4 M Urea, 10 mM AMPSO, pH 8.5. After refolded protein was loaded onto the columns, they were washed with 500 ml of 0.4 M Urea, 10 mM TRIS, pH 8.2. The columns were eluted with 180-245 ml of 0.75 M NaCl in 0.4 M Urea 10 mM TRIS buffer, pH 8.2. The eluates were then dialyzed versus 20 mM HEPES, pH 8.0. The samples were then removed from dialysis and dropped into 1 M NaMES, pH 5.7 (0.1 M final concentration). After centrifugation (20 Kxg) the supernatant was dropped into 1 M Na-acetate, 1 M NaMES, pH 5.0 (0.2 M Na-acetate, 0.28 M Na-MES was the final concentration). […] This solution was then applied to a 15 ml affinity column equilibrated at the same pH. The column was washed with 6 column volumes of 20 mM sodium acetate buffer pH 4.5, 150 mM NaCl. BACE was eluted at pH 8.5 using about 50 ml of 0.1 M borate buffer. […] Purified pQE70-BACE was dialyzed into 100 mM NaBorate pH 8.5.

Measured: binding result

SEVN[Sta]VAEFRGGC (also: coupled to Sulfolink resin via Cys) [synthetic peptide Ser-Glu-Val-Asn-Sta-Val-Ala-Glu-Phe-Arg-Gly-Gly-Cys (where Sta=statine)]
binds: [1] | [2] | [3] | [4]
